Patent US20160106830A1

B1: NP151 (peptide)
peptide: PEHVVNHYFQTRHYLHTLWKAGILYKRETTRSASF
modifications: not checked
B2: NP113 (peptide)
peptide: VGPLTVNEKRRLKLIMPARFYPNVTKYLPLDKGIK
modifications: not checked

Key:
[1] = target: HLA-DR7 (α1*01:01; β1*07:01) (human); assay: ProImmune REVEAL class II MHC-peptide binding assay
[2] = target: HLA-DR4 (α1*01:01; β1*04:01) (human); assay: as above

Row | Binder | binding score (% of positive control peptide signal) [1] | binding score (% of positive control peptide signal) [2]
1 | B1 | 19.4% | 74.4%
2 | B2 | 99.2% | 33.5%
